# IntAct's records for PubMed 31116475
# Target: aimp2_crigr AIMP2 (UniProt Q9WVM7)
# Sequence (Q9WVM7 whole entry): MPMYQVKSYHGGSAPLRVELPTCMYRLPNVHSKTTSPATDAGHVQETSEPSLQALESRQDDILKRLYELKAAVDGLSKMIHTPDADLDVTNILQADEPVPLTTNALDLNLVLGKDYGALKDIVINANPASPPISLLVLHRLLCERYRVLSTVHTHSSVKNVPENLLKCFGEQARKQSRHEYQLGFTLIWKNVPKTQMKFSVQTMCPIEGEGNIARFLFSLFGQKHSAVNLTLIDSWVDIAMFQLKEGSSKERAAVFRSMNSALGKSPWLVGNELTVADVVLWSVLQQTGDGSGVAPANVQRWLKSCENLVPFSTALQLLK
# Lysine--tRNA ligase (Cricetulus griseus (Chinese hamster)), P37879 P200L, sequence (P37879 whole entry P200L): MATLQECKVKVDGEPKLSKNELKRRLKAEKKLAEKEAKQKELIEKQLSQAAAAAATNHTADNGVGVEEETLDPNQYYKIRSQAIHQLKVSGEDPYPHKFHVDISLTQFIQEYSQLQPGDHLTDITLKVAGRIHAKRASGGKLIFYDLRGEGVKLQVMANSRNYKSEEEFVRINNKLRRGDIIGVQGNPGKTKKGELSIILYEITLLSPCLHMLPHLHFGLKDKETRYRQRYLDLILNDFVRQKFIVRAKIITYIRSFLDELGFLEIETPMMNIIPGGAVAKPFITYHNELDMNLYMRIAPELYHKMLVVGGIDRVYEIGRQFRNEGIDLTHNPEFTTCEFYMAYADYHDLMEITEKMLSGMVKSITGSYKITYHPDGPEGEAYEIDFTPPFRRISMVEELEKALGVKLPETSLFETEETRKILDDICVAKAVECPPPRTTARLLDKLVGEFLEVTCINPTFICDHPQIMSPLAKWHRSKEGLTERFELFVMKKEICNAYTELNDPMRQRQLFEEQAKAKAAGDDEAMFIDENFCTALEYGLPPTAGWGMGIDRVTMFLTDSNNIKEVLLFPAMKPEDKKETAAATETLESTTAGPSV
# Lysine--tRNA ligase (Cricetulus griseus (Chinese hamster)), P37879 F263V, sequence (P37879 whole entry F263V): as the sequence (P37879 whole entry P200L) above, with L200P, F263V counted along it
row,Substance,effect of a mutation on the interaction
1,"Lysine--tRNA ligase (Cricetulus griseus (Chinese hamster)), P37879 F263V",decreasing interaction strength
2,"Lysine--tRNA ligase (Cricetulus griseus (Chinese hamster)), P37879 P200L",decreasing interaction strength
